# Assay results: PMC6637868
# B1: PXO_RS01060 promoter probe (dsDNA)
# DNA 1: ATGATGTCGCCCAATCCCTGACCAGATCGATGCGCATGCA
# DNA 2: TGCATGCGCATCGATCTGGTCAGGGATTGGGCGACATCAT
# B2: PXO_RS11830 promoter probe (dsDNA)
# DNA 1: CTGGCGGACGCCAATAGCGGTTGAATGGGCAAGAGGATCT
# DNA 2: AGATCCTCTTGCCCATTCAACCGCTATTGGCGTCCGCCAG
# Target: 6His-CspA (Xanthomonas oryzae pv. oryzae PXO99A, UniProt A0ACG7R7F9 8-71)
# Assay: EMSA
# Settings: protein: recombinant; tags: N-terminal His6 (pET-30a-c(+)); label: 3' biotin
binder,measurement,value
B1,binding result,binds
B2,binding result,binds
